Article PMC3362532, “Targeting Melanoma Metastasis and Immunosuppression with a New Mode of Melanoma Inhibitory Activity (MIA) Protein Inhibition” (PLoS ONE, 2012)

How the values were obtained:
[1] = molecular target: T1, recombinant human MIA, wild type (human, UniProt Q16674 25-131); experiment: NMR titration; 2D 1H-15N HSQC of uniformly 15N-enriched MIA with increasing amounts of AR71, 300 K, pH 7; settings: both partners purified
T1 construct: The printed residue numbers (C17, C106) fit the mature protein without its signal peptide; The vector may add a His tag; also called wt MIA; wild-type (wt) MIA; source: in vitro expression, Rapid Translation System RTS 500 E. coli HY Disulfide Kit (cell free)
T1 sequence (looked up): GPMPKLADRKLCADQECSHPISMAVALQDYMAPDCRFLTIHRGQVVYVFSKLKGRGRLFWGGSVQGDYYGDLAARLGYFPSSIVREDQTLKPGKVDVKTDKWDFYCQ

[2] = molecular target: T2, human MIA protein labelled for the HTFP assay (MIA-biotin conjugate immobilised; MIA-Ru(bpy)3 in solution) (human, UniProt Q16674 25-131, Ru(bpy)3 (from Ru(bpy)3-isothiocyanate) on the copy in solution; biotin on the immobilised copy; sites not stated); experiment: fluorescence polarisation; heterogeneous transition-metal-based fluorescence polarization (HTFP) assay: MIA-biotin immobilised in streptavidin-coated 96 well plates, MIA-Ru(bpy)3 in solution, RT, 250 uL per well, P/P0 against a well without MIA-biotin; peptides at 1.6 uM; settings: both partners purified
T2 construct: human MIA protein; source: human MIA protein labeled with Ru(bpy)3-isothiocyanate, purified over a size exclusion column (Sephadex G75 M PD-10)
T2 sequence (looked up): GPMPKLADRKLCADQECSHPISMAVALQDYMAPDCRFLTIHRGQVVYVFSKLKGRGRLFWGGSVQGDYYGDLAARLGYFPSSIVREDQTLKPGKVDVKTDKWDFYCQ

binding result [1]: binds
binding result [2]: binds
Binder: Ac-FHWRYPLPLPGQ-NH2 [dodecapeptide AR71]
